# Substitutions are numbered along the chain they refer to. Numbers in names are those of the source. Where “and” joins values, the source holds several entries; their conditions need not be identical. Equal values may be shown once.
# T1: IL-18 receptor (IL-18Rαβ) on cells (UniProt Q13478 19-541; O95256 20-599, limits assumed)
# T1 sequence (looked up) 1: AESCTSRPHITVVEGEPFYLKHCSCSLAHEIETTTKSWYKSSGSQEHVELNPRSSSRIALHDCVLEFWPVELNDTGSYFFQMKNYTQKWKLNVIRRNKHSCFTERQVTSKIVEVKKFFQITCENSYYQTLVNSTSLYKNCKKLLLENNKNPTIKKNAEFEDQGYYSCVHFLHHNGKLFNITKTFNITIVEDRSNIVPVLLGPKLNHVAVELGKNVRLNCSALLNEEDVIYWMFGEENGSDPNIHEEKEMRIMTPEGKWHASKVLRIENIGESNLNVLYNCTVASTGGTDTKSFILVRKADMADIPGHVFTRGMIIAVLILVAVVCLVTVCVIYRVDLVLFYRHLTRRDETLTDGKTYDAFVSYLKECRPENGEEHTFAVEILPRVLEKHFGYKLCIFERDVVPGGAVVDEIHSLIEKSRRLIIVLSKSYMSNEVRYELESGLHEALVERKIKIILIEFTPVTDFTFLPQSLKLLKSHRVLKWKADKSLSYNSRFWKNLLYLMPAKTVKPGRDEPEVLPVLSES
# T1 sequence (looked up) 2: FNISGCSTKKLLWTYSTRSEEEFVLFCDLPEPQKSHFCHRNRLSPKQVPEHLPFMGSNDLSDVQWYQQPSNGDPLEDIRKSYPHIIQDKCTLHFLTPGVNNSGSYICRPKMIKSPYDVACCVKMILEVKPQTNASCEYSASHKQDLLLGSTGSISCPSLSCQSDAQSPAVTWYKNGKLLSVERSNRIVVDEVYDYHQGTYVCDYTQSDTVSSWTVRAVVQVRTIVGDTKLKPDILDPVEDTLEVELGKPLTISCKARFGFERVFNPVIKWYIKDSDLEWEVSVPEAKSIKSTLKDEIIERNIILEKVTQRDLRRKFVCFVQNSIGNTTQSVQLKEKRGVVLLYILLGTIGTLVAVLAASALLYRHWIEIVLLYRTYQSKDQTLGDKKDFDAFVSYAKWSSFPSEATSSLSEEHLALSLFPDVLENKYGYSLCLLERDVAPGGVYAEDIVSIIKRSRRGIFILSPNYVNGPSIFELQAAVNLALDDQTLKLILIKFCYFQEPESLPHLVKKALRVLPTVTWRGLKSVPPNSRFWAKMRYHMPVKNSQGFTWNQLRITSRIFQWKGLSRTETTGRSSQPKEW
# B1: IL-18 polypeptide SEQ ID NO: 42 (E06K, K53A, S55A, T63A) (ligand)
# chain: YFGKLKSKLSVIRNLNDQVLFIDQGNRPLFEDMTDSDCRDNAPRTIFIISMYADAQPRGMAVAISVKCEKISTLSCENKIISFKEMNPPDNIKDTKSDIIFFQRSVPGHDNKMQFESSSYEGYFLACEKERDLFKLILKKEDELGDRSIMFTVQNED
# B2: C182 (E6K, V11I, C38A, K53A, T63A, C76A, C127A, V153Y) (ligand)
# chain: B1 chain with V11I, C38A, A55S, C76A, C127A, V153Y
# B3: IL-18 polypeptide SEQ ID NO: 50 (E06K, K53A, T63A) (ligand)
# chain: B1 chain with A55S
# B4: C174 (K8L, E6K, V11I, C38A, K53A, T63A, C76A, C127A) (ligand)
# chain: B1 chain with K8L, V11I, C38A, A55S, C76A, C127A
# B5: C179 (E6K, K8E, V11I, C38A, K53A, T63A, C76A, Q103R, C127A) (ligand)
# chain: B1 chain with K8E, V11I, C38A, A55S, C76A, Q103R, C127A
# B6: C177 (E6K, V11I, C38A, I49R, K53A, T63A, C76A, C127A) (ligand)
# chain: B1 chain with V11I, C38A, I49R, A55S, C76A, C127A
# B7: IL-18 polypeptide SEQ ID NO: 59 (E6K, C38A, K53A) (ligand)
# chain: B1 chain with C38A, A55S, A63T
# B8: C147 (V11I, C38A, K53A, D54A, C76A, C127A) (ligand)
# chain: B1 chain with K6E, V11I, C38A, D54A, A55S, A63T, C76A, C127A
# B9: C183 (SEQ ID NO: 80; E6K, V11I, C38A, M51G, K53A, T63A, C76A, C127A) (ligand)
# chain: B1 chain with V11I, C38A, M51G, A55S, C76A, C127A
# B10: IL-18 polypeptide SEQ ID NO: 60 (E6K, C38Q, K53A) (ligand)
# chain: B1 chain with C38Q, A55S, A63T
# B11: C184 (E6R, V11I, C38A, K53A, T63A, C76A, C127A) (ligand)
# chain: B1 chain with K6R, V11I, C38A, A55S, C76A, C127A
# B12: C181 (E6K, V11I, C38A, K53A, T63A, C76A, C127A, V153E) (ligand)
# chain: B1 chain with V11I, C38A, A55S, C76A, C127A, V153E
# B13: C144 (V11I, C38A, K53A, T63A, C76A, C127A) (ligand)
# chain: B1 chain with K6E, V11I, C38A, A55S, C76A, C127A
# B14: C142 (Y1M, E6K, V11I, C38A, K53A, T63A, C76A, C127A) (ligand)
# chain: B1 chain with Y1M, V11I, C38A, A55S, C76A, C127A
# B15: IL-18 polypeptide SEQ ID NO: 62 (E6K, C38A, K53A, C127A) (ligand)
# chain: B1 chain with C38A, A55S, A63T, C127A
# B16: C143 (V11I, C38A, K53A, C76A, C127A) (ligand)
# chain: B1 chain with K6E, V11I, C38A, A55S, A63T, C76A, C127A
# B17: C178 (E6K, V11I, C38A, K53A, T63A, C76A, Q103R, C127A) (ligand)
# chain: B1 chain with V11I, C38A, A55S, C76A, Q103R, C127A
# B18: C146 (SEQ ID NO: 79; V11I, C38A, M51G, K53A, C76A, C127A) (ligand)
# chain: B1 chain with K6E, V11I, C38A, M51G, A55S, A63T, C76A, C127A
# B19: IL-18 polypeptide SEQ ID NO: 57 (E6K, C38S, K53A) (ligand)
# chain: B1 chain with C38S, A55S, A63T
# B20: C176 (E6K, V11I, C38A, I49M, K53A, T63A, C76A, C127A) (ligand)
# chain: B1 chain with V11I, C38A, I49M, A55S, C76A, C127A
# B21: IL-18 polypeptide SEQ ID NO: 54 (E06K, K53A, C38S, C68S, C76S, C127S, K70C) (ligand)
# chain: B1 chain with C38S, A55S, A63T, C68S, K70C, C76S, C127S
# B22: C145 (V11I, C38A, K53A, S55A, C76A, C127A) (ligand)
# chain: B1 chain with K6E, V11I, C38A, A63T, C76A, C127A
# B23: IL-18 polypeptide SEQ ID NO: 56 (E6K, K53A, C38S, C76S, C127S) (ligand)
# chain: B1 chain with C38S, A55S, A63T, C76S, C127S
# B24: C140 (SEQ ID NO: 83; N-terminal 4xG, E6K, V11I, C38A, K53A, T63A, C76A, C127A) (ligand)
# chain: GGGGYFGKLKSKLSIIRNLNDQVLFIDQGNRPLFEDMTDSDARDNAPRTIFIISMYADSQPRGMAVAISVKCEKISTLSAENKIISFKEMNPPDNIKDTKSDIIFFQRSVPGHDNKMQFESSSYEGYFLAAEKERDLFKLILKKEDELGDRSIMFTVQNED
# B25: C141 (SEQ ID NO: 82; N-terminal G, E6K, V11I, C38A, K53A, T63A, C76A, C127A) (ligand)
# chain: GYFGKLKSKLSIIRNLNDQVLFIDQGNRPLFEDMTDSDARDNAPRTIFIISMYADSQPRGMAVAISVKCEKISTLSAENKIISFKEMNPPDNIKDTKSDIIFFQRSVPGHDNKMQFESSSYEGYFLAAEKERDLFKLILKKEDELGDRSIMFTVQNED
# B26: C192 (SEQ ID NO: 81; N-terminal G, E6K, V11I, C38A, M51G, K53A, T63A, C76A, C127A) (ligand)
# chain: B25 chain with M52G
# B27: IL-18 polypeptide SEQ ID NO: 35 (Y01G, F02A, E06K, M51G, K53A, D54A, S55A, T63A) (ligand)
# chain: B1 chain with Y1G, F2A, M51G, D54A
# B28: IL-18 polypeptide SEQ ID NO: 4 (E6K, C38A, K53A, C68A, M86C) (ligand)
# chain: B1 chain with C38A, A55S, A63T, C68A, M86C
# B29: IL-18 polypeptide SEQ ID NO: 47 (C38S, C68S, C76S, C127S) (ligand)
# chain: B1 chain with K6E, C38S, A53K, A55S, A63T, C68S, C76S, C127S
# B30: IL-18 polypeptide SEQ ID NO: 9 (E6K, C38A, K53A, C68A, D98C) (ligand)
# chain: B1 chain with C38A, A55S, A63T, C68A, D98C
# B31: IL-18 polypeptide SEQ ID NO: 5 (E6K, V11I, C38A, K53A, T63A, C68A, C76A, M86C, C127A) (ligand)
# chain: B1 chain with V11I, C38A, A55S, C68A, C76A, M86C, C127A
# B32: IL-18 polypeptide SEQ ID NO: 46 (E06K, K53A, S55A, M51G) (ligand)
# chain: B1 chain with M51G, A63T
# B33: IL-18 polypeptide SEQ ID NO: 43 (E06K, K53A, S55A, Y01G) (ligand)
# chain: B1 chain with Y1G, A63T
# B34: IL-18 polypeptide SEQ ID NO: 6 (E6K, V11I, C38A, K53A, T63A, C68A, C76A, D98C, C127A) (ligand)
# chain: B1 chain with V11I, C38A, A55S, C68A, C76A, D98C, C127A
# B35: IL-18 polypeptide SEQ ID NO: 44 (E06K, K53A, S55A, F02A) (ligand)
# chain: B1 chain with F2A, A63T
# B36: IL-18 polypeptide SEQ ID NO: 55 (K53A, T63A, C38S, C68S, C76S, C127S, K70C) (ligand)
# chain: B1 chain with K6E, C38S, A55S, C68S, K70C, C76S, C127S
# B37: IL-18 polypeptide SEQ ID NO: 49 (E06K, K53A, S55A, C38S, C68S, C76S, C127S, K70C) (ligand)
# chain: B1 chain with C38S, A63T, C68S, K70C, C76S, C127S
# B38: IL-18 polypeptide SEQ ID NO: 45 (E06K, K53A, S55A, D54A) (ligand)
# chain: B1 chain with D54A, A63T
# B39: IL-18 polypeptide SEQ ID NO: 48 (C38S, C68S, C76S, C127S, K70C) (ligand)
# chain: B1 chain with K6E, C38S, A53K, A55S, A63T, C68S, K70C, C76S, C127S
# Target: T1, IL-18 receptor (IL-18Rαβ) on cells
# Experiment: cell-based or functional assay
row,"EC50 (pM), HEK-Blue IL-18R reporter assay",Binder
1,0.79 pM,B1
2,0.08 pM,B2
3,1.77 pM,B3
4,0.29 pM,B4
5,0.4 pM,B5
6,0.04 pM,B6
7,0.268 pM,B7
8,1 pM,B8
9,0.1 pM,B9
10,0.203 pM,B10
11,0.04 pM,B11
12,0.1 pM,B12
13,0.17 pM,B13
14,0.02 pM,B14
15,0.17 pM,B15
16,0.98 pM,B16
17,0.26 pM,B17
18,0.8 pM,B18
19,0.86 pM and 0.53 pM,B19
20,0.07 pM,B20
21,9.12 pM,B21
22,3.63 pM,B22
23,3.73 pM,B23
24,2.5 pM,B24
25,1.68 pM,B25
26,14 pM,B26

# Target: T1, IL-18 receptor (IL-18Rαβ) on cells
# Experiment: cell-based or functional assay
# Remark: another data set of the same source
row,"EC50 (nM), IFNγ induction, NK-92 cells [nM]",Binder
1,0.144,B1
2,0.0268,B3
3,> 55,B27
4,0.022,B28
5,0.045,B7
6,0.256,B8
7,0.115,B29
8,0.069,B30
9,0.015,B10
10,0.075,B31
11,7.4,B32
12,0.087,B13
13,0.006,B15
14,6.12,B33
15,0.012,B16
16,1.37,B34
17,> 1000,B35
18,17.2,B36
19,0.079,B18
20,58.5,B37
21,0.138,B19
22,30,B38
23,0.488,B39
24,0.962,B21
25,0.037,B22

# From patent US20240116997A1 (BRIGHT PEAK THERAPEUTICS, published 2024)
